Key:
Test in all cases: peptide microarray, anti-mouse IgG DyLight 650, MMC2 heatmap (Example 17)
Peptide_089 = molecular target: T1, Peptide_089
T1 peptide: KCMPTFQFFKKGQKV
Experimental: (§1) 5, 1, 0.2, 0.04, 0.008 and 0.0016 μg/mL serial dilutions were incubated on a single multi-well microarray slide at 30° C. for 1 hour. The slide includes 21 individual mini-arrays (one mini-array per sample dilution).
(§2) DyLight 650 was used as a label. False-positive binding to a peptide was evaluated by performing one additional control incubation in which only a secondary antibody was applied on the same microarray slide. Before performing each step, the microarrays were washed with a washing buffer.
(§3) To visualize the obtained results and compare binding regions across individual cultures, as shown in FIGS. 21A to 21D, heatmap diagrams were calculated. In FIGS. 21A to 21D, the fluorescence intensity is expressed in a color-coded manner, white indicates no binding, and red indicates strong binding. For all evaluations, the MMC2-value of the average pixel fluorescence for each peptide was calculated.

Peptide_032 = molecular target: T2, Peptide_032
T2 peptide: LDAAGDKLVVVDFSA
Experimental: as §1, §2, §3

Peptide_058 = molecular target: T3, Peptide_058
T3 peptide: FFHSLSEKYSNVIFL
Experimental: as §1, §2, §3

Peptide_100 = molecular target: T4, Peptide_100
T4 peptide: GQKVGEFSGANKEKL
Experimental: as §1, §2, §3

Peptide_028 = molecular target: T5, Peptide_028
T5 peptide: FQEALDAAGDKLVVV
Experimental: as §1, §2, §3

Peptide_060 = molecular target: T6, Peptide_060
T6 peptide: HSLSEKYSNVIFLEV
Experimental: as §1, §2, §3

Peptide_077 = molecular target: T7, Peptide_077
T7 peptide: DDCQDVASECEVKCM
Experimental: as §1, §2, §3

Peptide_004 = molecular target: T8, Peptide_004 (human)
T8 construct: 15-mer on microarray; not native form, recombinant insert region
T8 peptide: AADVHSQHHHHHHHH
Experimental: as §1, §2, §3

Peptide_108 = molecular target: T9, Peptide_108
T9 peptide: GANKEKLEATINELV
Experimental: as §1, §2, §3

Peptide_043 = molecular target: T10, Peptide_043
T10 peptide: DFSATWCGPCKMIKP
Experimental: as §1, §2, §3

Peptide_075 = molecular target: T11, Peptide_075
T11 peptide: DVDDCQDVASECEVK
Experimental: as §1, §2, §3

Peptide_033 = molecular target: T12, Peptide_033
T12 peptide: DAAGDKLVVVDFSAT
Experimental: as §1, §2, §3

Peptide_065 = molecular target: T13, Peptide_065
T13 peptide: KYSNVIFLEVDVDDC
Experimental: as §1, §2, §3

Peptide_039 = molecular target: T14, Peptide_039
T14 peptide: LVVVDFSATWCGPCK
Experimental: as §1, §2, §3

Peptide_076 = molecular target: T15, Peptide_076
T15 peptide: VDDCQDVASECEVKC
Experimental: as §1, §2, §3

Peptide_006 = molecular target: T16, Peptide_006
T16 peptide: DVHSQHHHHHHHHVK
Experimental: as §1, §2, §3

Peptide_034 = molecular target: T17, Peptide_034
T17 peptide: AAGDKLVVVDFSATW
Experimental: as §1, §2, §3

Peptide_106 = molecular target: T18, Peptide_106
T18 construct: also called FSGANKEKLEATINE
T18 peptide: FSGANKEKLEATINE
Experimental: as §1, §2, §3

Peptide_083 = molecular target: T19, Peptide_083
T19 peptide: ASECEVKCMPTFQFF
Experimental: as §1, §2, §3

Peptide_079 = molecular target: T20, Peptide_079
T20 peptide: CQDVASECEVKCMPT
Experimental: as §1, §2, §3

Peptide_071 = molecular target: T21, Peptide_071
T21 construct: also called FLEVDVDDCQDVASE
T21 peptide: FLEVDVDDCQDVASE
Experimental: as §1, §2, §3

Peptide_041 = molecular target: T22, Peptide_041
T22 peptide: VVDFSATWCGPCKMI
Experimental: as §1, §2, §3

Peptide_061 = molecular target: T23, Peptide_061
T23 peptide: SLSEKYSNVIFLEVD
Experimental: as §1, §2, §3

Peptide_072 = molecular target: T24, Peptide_072
T24 peptide: LEVDVDDCQDVASEC
Experimental: as §1, §2, §3

Peptide_099 = molecular target: T25, Peptide_099
T25 peptide: KGQKVGEFSGANKEK
Experimental: as §1, §2, §3

Peptide_107 = molecular target: T26, Peptide_107
T26 peptide: SGANKEKLEATINEL
Experimental: as §1, §2, §3

Peptide_091 = molecular target: T27, Peptide_091
T27 peptide: MPTFQFFKKGQKVGE
Experimental: as §1, §2, §3

Peptide_037 = molecular target: T28, Peptide_037
T28 peptide: DKLVVVDFSATWCGP
Experimental: as §1, §2, §3

B1: monoclonal antibody B264 (antibody, mouse IgG1, kappa, V domains shown)
VH: QVQLQQSGAELARPGASVKMSCKASGYTFTSYTMHWVKQRPGQGLEWIGYINPTSDYTNYNQKFKDKATLTADKSSSTAYMQLSSLTSEDSAVYFCASEGGFLYYFDYWGQGTTLTVSS
VL: DVLMTQTPLSLPVSLGDQASISCRSSQSIVHSNGNTYLEWYLQKPGQSPKLLIYKVSNRFSGVPDRFSGSGSGTDFTLKISRVEAEDLGVYYCFQGSHVPYTFGGGTKLEIKR
notes: also called AB264; B264 (Trx1-mIgG1)
Peptide_089
  binding result: no binding (tested: 5 ug/mL)
Peptide_032
  binding result: no binding (tested: 5 ug/mL)
Peptide_058
  binding result: no binding (tested: 5 ug/mL)
Peptide_100
  binding result: no binding (tested: 5 ug/mL)
Peptide_028
  binding result: no binding (tested: 5 ug/mL)
Peptide_060
  binding result: binds
Peptide_077
  binding result: no binding (tested: 5 ug/mL)
Peptide_004
  binding result: no binding (tested: 5 ug/mL)
Peptide_108
  binding result: no binding (tested: 5 ug/mL)
Peptide_043
  binding result: no binding (tested: 5 ug/mL)
Peptide_075
  binding result: no binding (tested: 5 ug/mL)
Peptide_033
  binding result: no binding (tested: 5 ug/mL)
Peptide_065
  binding result: no binding (tested: 5 ug/mL)
Peptide_039
  binding result: binds
Peptide_076
  binding result: no binding (tested: 5 ug/mL)
Peptide_006
  binding result: binds
Peptide_034
  binding result: no binding (tested: 5 ug/mL)
Peptide_106
  binding result: no binding (tested: 5 ug/mL)
Peptide_083
  binding result: no binding (tested: 5 ug/mL)
Peptide_079
  binding result: no binding (tested: 5 ug/mL)
Peptide_071
  binding result: no binding (tested: 5 ug/mL)
Peptide_041
  binding result: no binding (tested: 5 ug/mL)
Peptide_061
  binding result: no binding (tested: 5 ug/mL)
Peptide_072
  binding result: no binding (tested: 5 ug/mL)
Peptide_099
  binding result: no binding (tested: 5 ug/mL)
Peptide_107
  binding result: no binding (tested: 5 ug/mL)
Peptide_091
  binding result: no binding (tested: 5 ug/mL)
Peptide_037
  binding result: no binding (tested: 5 ug/mL)
